What all share (assay): cell-based or functional assay
The target in test [1] is M665 (CD8α SP-BCMA scFv-CD8α hinge-CD8α TM-ISD).
Test [2] addresses M666 (CD8α SP-BCMA scFv-CD8α hinge-CD8α TM-ISD).
For test [3], the target named is M663 (CD8α SP-BCMA scFv-CD8α hinge-CD8α TM-ISD).

B1: wildtype SIV Nef (other)
chain: MGSSNSKRQQQGLLKLWRGLRGKPGADWVLLSDPLIGQSSTVQEECGKALKKSWGKGKMTPDGRRLQEGDTFDEWDDDEEEVGFPVQPRVPLRQMTYKLAVDFSHFLKSKGGLDGIYYSERREKILNLYALNEWGIIDDWQAYSPGPGIRYPRVFGFCFKLVPVDLHEEARNCERHCLMHPAQMGEDPDGIDHGEVLVWKFDPKLAVEYRPDMFKDMHEHAKR
B1: the “relative ISD-modified CAR positive rate (FACS), day 3, against empty vector control” value came to 82.3% in test [1], 57% in test [2] and 46.7% in test [3].

B2: SIV Nef M116 (other)
chain: MGSSNSKRQQQGLLKLWRGLRGKPGADWVLLSDPLIGQSSTVQEECGKALKKSWGKGKMTPDGRRLQEGDTFDEWDDDEEEVGFPVQPRVPLRQMTYKLAVDFSHFLKSKGGLDGIYYSERREKILNLYALNEWGIIDDWQAYSPGPGIRYPRVFGFCFKLVPVDLHEEARNCERHCAAHPAQMGEDPDGIDHGEVLVWKFDPKLAVEYRPDMFKDMHEHAKR
As for B2, the “relative ISD-modified CAR positive rate (FACS), day 3, against empty vector control” value in test [1] was 70.3%; in test [2], 56.2%; in test [3] it was 50.9%.

Source of the values: US20220313738A1 (NANJING LEGEND BIOTECH, published 2022).
